Patent US20050031628A1

Columns and labels:
[1] = target: antigen binding receptors on maturing human monocyte-derived dendritic cells; experiment: flow cytometry, maturing dendritic cells loaded with 10 µg/ml HBV S1/S2
[2] = target: antigen binding receptors on maturing human monocyte-derived dendritic cells; experiment: flow cytometry, 90 µg/mL, 1 h at 4 C, dendritic cells of day 1 of culture, F(ab')2 goat anti-mouse Alexa-488
[3] = target: antigen binding receptors on maturing human monocyte-derived dendritic cells; experiment: flow cytometry, 90 µg/mL, 1 h at 4 C, dendritic cells of day 4 of culture, F(ab')2 goat anti-mouse Alexa-488
[4] = target: antigen binding receptors on maturing human monocyte-derived dendritic cells; experiment: flow cytometry, 90 µg/mL, 1 h at 4 C, dendritic cells of day 2 of culture, F(ab')2 goat anti-mouse Alexa-488
[5] = target: antigen binding receptors on maturing human monocyte-derived dendritic cells; experiment: flow cytometry, 90 µg/mL, 1 h at 4 C, dendritic cells of day 3 of culture, F(ab')2 goat anti-mouse Alexa-488

| Substance | % Specific positive cells [1] [%] | Relative MFI [1] | % Specific positive dendritic cells [2] [%] | % Specific positive dendritic cells [3] [%] | % Specific positive dendritic cells [4] [%] | % Specific positive dendritic cells [5] [%] |
| --- | --- | --- | --- | --- | --- | --- |
| HBV S1/S2 expressed in E. coli | 12.2 | 3.9 | – | – | – | – |
| HBV S1/S2 expressed in High Five insect cells (baculovirus) | 69.9 | 40.3 | – | – | – | – |
| murine IgG2a (G155-178) (antibody) | – | – | 28 | 13.5 | 17.4 | 14.3 |
